The test deals with T1, human CD127 (IL-7R), as used in the scFv binding experiments (human, UniProt P16871 21-239, limits assumed).
T1 construct: also called IL-7Ralpha; interleukin-7 receptor subunit alpha
T1 sequence: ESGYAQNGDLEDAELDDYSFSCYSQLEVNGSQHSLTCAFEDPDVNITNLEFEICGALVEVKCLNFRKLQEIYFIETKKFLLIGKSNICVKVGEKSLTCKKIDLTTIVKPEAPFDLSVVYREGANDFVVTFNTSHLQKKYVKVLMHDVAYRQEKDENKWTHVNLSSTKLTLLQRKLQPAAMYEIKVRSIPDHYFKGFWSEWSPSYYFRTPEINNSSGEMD
The test can be described thus: scFv binding experiment, given as ED50; method and format not stated (FIG. 1A).

B1: scFv703-Fc (VL-VH) (Fc fusion)
scFv: DIVLTQSPSSLPVTPGEPASISCRSSQSLLTVKGITSLYWFLQKPGQSPKLLIYRMSNRDSGVPDRFSGSGSETDFTLKISRVEAEDVGTYYCAQFLEYPHTFGAGTKLELKGGGGSGGGGSGGGGSAVQLVESGGGLVQPGGSLKITCAASGFTFTNAAMYWVRQAPGKGLEWVARIRTKANNYATYYADSVKGRFTISRDDSKSTVYLQMDSVKTEDTATYYCIVVVLTTTRDYFDYWGQGVLVTVSS
notes: The Fc is not described; also called scFv703LH; VL-VH scFv of OSE703; not shown: The Fc part implied by the name scFv703-Fc, and any hinge or linker to it
Usually EC50 stands for the midpoint of the concentration-response curve. Take B1: the EC50 stood at 0.539 µg/mL.

B2: scFv703-Fc (VH-VL) (Fc fusion)
scFv: AVQLVESGGGLVQPGGSLKITCAASGFTFTNAAMYWVRQAPGKGLEWVARIRTKANNYATYYADSVKGRFTISRDDSKSTVYLQMDSVKTEDTATYYCIVVVLTTTRDYFDYWGQGVLVTVSSGGGGSGGGGSGGGGSDIVLTQSPSSLPVTPGEPASISCRSSQSLLTVKGITSLYWFLQKPGQSPKLLIYRMSNRDSGVPDRFSGSGSETDFTLKISRVEAEDVGTYYCAQFLEYPHTFGAGTKLELK
notes: The Fc is not described; also called scFv703HL; VH-VL scFv of OSE703; not shown: The Fc part implied by the name scFv703-Fc, and any hinge or linker to it
B2: the EC50 came to 3.32 µg/mL. This EC50 lies about 6.2-fold higher than the previous one.

(Values after patent publication US20230087125A1 (Memorial Sloan Kettering, published 2023).)
